Reference: paper PMC4051425
Like-named read-outs stand apart in the source and are kept apart here.

Key:
[1] = target: T1, TRBP-RBD2 (second dsRBD of TRBP) (UniProt Q15633 159-227); test: EMSA
T1 sequence: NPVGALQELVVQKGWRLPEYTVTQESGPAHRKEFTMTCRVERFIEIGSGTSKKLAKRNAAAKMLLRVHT

[2] = target: T1, TRBP-RBD2 (second dsRBD of TRBP); test: EMSA; remark: listed apart in the source

B1: 25-bp dsRNA (dsRNA)
RNA 1: GCUUGUCGGGAGCGCCACCCUCUGC
RNA 2: GCAGAGGGUGGCGCUCCCGACAAGC
Question: Does B1 bind [1]?
Answer: binds

B2: 25-bp dsDNA (dsDNA)
DNA 1: GCTTGTCGGGAGCGCCACCCTCTGC
DNA 2: GCAGAGGGTGGCGCTCCCGACAAGC
Question: Does B2 bind [2]?
Answer: no binding
